Test results published in PMC8537613.
pKd: −log10 of the molar value.

Assays:
Test in all cases: ELISA
[1] = target: RSV F clamp (respiratory syncytial virus A2) (UniProt P03420)
[2] = target: RSV FxG (respiratory syncytial virus A2 | respiratory syncytial virus (strain not stated for G)) (UniProt P03423)
[3] = target: NiV FxG (Nipah virus (Malaysia strain) | Nipah virus) (UniProt Q9IH63)
[4] = target: RSV sG

RSV FxG (respiratory syncytial virus A2 | respiratory syncytial virus (strain not stated for G)), sequence (P03423 whole entry): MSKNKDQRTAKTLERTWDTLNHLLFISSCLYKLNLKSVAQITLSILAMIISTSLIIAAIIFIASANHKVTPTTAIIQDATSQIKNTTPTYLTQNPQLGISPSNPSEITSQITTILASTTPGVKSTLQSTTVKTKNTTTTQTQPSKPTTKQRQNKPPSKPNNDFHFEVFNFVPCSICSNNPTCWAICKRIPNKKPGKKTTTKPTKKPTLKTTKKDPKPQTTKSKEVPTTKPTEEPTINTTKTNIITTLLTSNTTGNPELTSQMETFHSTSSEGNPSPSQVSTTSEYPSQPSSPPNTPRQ
RSV F clamp (respiratory syncytial virus A2), sequence (P03420 whole entry, looked up): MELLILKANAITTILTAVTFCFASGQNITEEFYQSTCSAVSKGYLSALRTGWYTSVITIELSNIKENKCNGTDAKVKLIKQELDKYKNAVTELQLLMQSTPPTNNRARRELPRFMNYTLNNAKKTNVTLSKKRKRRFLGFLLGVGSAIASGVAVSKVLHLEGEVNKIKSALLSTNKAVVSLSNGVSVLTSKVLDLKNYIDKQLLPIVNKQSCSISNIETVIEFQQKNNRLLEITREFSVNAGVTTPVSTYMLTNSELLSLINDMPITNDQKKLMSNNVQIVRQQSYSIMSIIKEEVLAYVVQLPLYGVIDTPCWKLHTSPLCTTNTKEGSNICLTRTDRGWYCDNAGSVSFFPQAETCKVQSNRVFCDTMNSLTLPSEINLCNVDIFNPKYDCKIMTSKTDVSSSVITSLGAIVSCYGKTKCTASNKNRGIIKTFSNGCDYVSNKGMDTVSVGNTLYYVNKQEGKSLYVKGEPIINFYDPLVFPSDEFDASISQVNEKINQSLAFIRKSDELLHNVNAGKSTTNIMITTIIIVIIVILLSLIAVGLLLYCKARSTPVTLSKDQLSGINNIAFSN
NiV FxG (Nipah virus (Malaysia strain) | Nipah virus), sequence (Q9IH63 whole entry, looked up): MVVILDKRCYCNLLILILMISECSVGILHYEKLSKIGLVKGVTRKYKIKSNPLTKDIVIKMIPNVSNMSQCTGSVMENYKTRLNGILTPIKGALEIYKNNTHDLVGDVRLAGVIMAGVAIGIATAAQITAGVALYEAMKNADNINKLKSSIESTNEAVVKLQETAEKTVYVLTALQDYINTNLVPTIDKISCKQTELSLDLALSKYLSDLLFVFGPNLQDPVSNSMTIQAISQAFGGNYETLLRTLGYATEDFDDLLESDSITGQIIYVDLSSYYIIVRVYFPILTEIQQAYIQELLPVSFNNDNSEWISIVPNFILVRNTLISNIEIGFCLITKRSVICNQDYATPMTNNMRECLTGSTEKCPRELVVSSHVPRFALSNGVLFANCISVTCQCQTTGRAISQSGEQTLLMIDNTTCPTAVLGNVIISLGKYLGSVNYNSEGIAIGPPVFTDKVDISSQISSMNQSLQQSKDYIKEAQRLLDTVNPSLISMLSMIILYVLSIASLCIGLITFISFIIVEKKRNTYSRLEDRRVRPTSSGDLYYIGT

Row | Substance | pKd [1] | pKd [2] | pKd [3] | pKd [4]
1 | D25 | 9.01 | 9.32 | – | –
2 | m102.4 | – | – | 9.77 | –
3 | Mota | 9.68 | 9.59 | – | –
4 | 3D3 | – | 9.37 | – | 8.68
5 | MPE8 | 9.19 | 9.38 | – | –
6 | 2D10 | – | 9.39 | – | 8.89
